Read-outs that look alike come from different tables or passages of the source.
Legend:
SPOP ΔBACK^28–337 [1] = target: T1, SPOP ΔBACK^28–337 (UniProt O43791 28-337); experiment: fluorescence polarisation
SPOP ΔBACK^28–337 [2] = target: T1, SPOP ΔBACK^28–337; experiment: fluorescence polarisation; remark: listed apart in the source

T1 sequence (O43791 28-337, stated change not applied): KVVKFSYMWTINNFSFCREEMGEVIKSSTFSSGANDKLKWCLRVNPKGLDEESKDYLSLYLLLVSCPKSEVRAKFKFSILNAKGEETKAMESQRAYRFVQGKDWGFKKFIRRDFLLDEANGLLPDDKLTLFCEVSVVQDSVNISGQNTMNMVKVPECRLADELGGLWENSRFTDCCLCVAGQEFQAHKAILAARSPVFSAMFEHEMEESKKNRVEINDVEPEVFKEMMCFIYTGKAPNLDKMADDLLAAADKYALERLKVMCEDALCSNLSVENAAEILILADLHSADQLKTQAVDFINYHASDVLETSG

B1: rhodamine-labeled His-cDAXX^495–740 (domain or fragment, UniProt Q9UER7 495-740, looked up)
chain: SPMSSLQISNEKNLEPGKQISRSSGEQQNKGRIVSPSLLSEEPLAPSSIDAESNGEQPEELTLEEESPVSQLFELEIEALPLDTPSSVETDISSSRKQSEEPFTTVLENGAGMVSSTSFNGGVSPHNWGDSGPPCKKSRKEKKQTGSGPLGNSYVERQRSVHEKNGKKICTLPSPPSPLASLAPVADSSTRVDSPSHGLVTSSLCIPSPARLSQTPHSQPPRPGTCKTSVATQCDPEEIIVLSDSD
modifications: labeled with Rhodamine Red C2 maleimide
Kd (SPOP ΔBACK^28–337 [1]): 17 µM | Kd (SPOP ΔBACK^28–337 [2]): 10 µM
